Results reported in article PMC10131064 (The Journal of Biological Chemistry, 2023).

How the values were obtained:
Assay in all cases: SPR
[1] = target: T1, human MDGA1 V314D soluble ectodomain, (His)6-tagged (human, UniProt Q8NFP4-1 22-920, V314D)
T1 sequence: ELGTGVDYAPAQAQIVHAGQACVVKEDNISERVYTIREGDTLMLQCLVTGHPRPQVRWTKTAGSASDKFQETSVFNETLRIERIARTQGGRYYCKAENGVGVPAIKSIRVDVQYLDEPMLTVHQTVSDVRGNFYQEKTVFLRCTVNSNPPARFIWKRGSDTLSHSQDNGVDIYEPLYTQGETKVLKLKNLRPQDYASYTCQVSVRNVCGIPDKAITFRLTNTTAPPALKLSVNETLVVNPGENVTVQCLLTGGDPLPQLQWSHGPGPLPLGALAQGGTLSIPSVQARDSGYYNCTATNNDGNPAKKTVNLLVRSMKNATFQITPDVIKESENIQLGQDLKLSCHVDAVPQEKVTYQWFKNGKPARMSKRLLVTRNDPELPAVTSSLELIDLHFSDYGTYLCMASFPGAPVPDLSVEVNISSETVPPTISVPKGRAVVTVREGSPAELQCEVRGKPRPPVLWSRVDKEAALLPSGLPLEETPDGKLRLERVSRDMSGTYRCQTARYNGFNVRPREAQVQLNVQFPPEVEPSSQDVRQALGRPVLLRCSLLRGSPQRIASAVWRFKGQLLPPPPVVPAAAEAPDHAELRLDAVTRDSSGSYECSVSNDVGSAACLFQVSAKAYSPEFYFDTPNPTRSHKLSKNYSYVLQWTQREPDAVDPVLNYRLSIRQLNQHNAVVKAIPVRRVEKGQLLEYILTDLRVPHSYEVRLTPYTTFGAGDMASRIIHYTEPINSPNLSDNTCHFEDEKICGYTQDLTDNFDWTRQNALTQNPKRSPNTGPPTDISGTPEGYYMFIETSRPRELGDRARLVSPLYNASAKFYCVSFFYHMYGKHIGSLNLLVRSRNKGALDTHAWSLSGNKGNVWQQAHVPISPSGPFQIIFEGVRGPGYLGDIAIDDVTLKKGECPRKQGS

[2] = target: T2, human MDGA1 T135C/N313C soluble ectodomain, (His)6-tagged (human, UniProt Q8NFP4-1 22-920, T135C | N313C)
T2 sequence: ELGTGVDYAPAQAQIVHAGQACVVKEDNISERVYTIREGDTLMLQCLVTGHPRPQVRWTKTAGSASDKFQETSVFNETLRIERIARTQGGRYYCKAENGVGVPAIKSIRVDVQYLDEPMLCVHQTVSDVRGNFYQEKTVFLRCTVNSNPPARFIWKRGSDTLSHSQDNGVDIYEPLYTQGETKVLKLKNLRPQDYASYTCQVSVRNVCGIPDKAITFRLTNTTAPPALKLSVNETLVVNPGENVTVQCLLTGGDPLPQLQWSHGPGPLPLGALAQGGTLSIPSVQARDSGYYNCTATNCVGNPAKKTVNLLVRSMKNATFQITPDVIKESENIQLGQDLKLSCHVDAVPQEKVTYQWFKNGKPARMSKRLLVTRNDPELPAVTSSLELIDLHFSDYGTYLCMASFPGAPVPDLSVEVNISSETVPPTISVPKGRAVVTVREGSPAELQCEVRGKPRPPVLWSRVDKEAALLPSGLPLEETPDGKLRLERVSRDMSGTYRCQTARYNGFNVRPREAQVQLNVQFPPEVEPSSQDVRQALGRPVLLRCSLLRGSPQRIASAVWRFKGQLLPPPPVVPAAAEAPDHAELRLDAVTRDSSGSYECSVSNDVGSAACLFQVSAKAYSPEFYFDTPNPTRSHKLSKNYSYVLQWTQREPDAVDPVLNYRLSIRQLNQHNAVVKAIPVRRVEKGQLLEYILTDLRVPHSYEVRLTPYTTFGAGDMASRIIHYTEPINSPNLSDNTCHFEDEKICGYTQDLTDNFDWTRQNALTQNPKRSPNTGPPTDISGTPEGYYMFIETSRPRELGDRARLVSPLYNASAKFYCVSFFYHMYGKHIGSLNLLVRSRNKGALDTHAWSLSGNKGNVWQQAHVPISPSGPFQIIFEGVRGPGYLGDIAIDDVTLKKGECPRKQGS

[3] = target: T3, human MDGA1 I336D soluble ectodomain, (His)6-tagged (human, UniProt Q8NFP4-1 22-920, I336D)
T3 sequence: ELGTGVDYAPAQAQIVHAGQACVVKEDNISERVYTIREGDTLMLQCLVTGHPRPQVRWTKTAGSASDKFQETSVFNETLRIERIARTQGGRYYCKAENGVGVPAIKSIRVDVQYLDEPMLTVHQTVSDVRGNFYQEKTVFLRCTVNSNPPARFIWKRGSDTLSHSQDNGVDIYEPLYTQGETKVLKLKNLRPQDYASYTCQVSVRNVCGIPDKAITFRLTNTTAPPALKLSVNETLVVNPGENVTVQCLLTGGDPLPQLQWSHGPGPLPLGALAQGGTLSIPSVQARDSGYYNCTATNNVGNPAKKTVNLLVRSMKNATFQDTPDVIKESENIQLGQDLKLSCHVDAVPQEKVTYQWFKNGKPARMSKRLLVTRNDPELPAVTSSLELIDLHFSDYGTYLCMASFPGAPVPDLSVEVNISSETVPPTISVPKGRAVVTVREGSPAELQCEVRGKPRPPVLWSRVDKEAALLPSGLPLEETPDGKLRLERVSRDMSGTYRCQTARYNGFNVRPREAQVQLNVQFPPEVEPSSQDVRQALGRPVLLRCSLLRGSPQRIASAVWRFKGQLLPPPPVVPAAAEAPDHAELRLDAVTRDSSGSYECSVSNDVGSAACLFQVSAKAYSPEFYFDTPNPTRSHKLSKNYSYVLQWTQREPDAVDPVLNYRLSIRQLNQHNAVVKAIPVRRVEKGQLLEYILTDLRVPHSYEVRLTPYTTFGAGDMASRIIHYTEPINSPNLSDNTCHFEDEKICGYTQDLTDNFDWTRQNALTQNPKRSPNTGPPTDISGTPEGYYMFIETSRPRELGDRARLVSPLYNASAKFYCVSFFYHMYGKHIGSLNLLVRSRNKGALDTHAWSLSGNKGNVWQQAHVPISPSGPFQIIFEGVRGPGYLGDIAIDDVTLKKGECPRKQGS

[4] = target: T4, human MDGA1 WT soluble ectodomain (residues 22-920, lacking the GPI anchor region), (His)6-tagged (human, UniProt Q8NFP4-1 22-920)
T4 sequence: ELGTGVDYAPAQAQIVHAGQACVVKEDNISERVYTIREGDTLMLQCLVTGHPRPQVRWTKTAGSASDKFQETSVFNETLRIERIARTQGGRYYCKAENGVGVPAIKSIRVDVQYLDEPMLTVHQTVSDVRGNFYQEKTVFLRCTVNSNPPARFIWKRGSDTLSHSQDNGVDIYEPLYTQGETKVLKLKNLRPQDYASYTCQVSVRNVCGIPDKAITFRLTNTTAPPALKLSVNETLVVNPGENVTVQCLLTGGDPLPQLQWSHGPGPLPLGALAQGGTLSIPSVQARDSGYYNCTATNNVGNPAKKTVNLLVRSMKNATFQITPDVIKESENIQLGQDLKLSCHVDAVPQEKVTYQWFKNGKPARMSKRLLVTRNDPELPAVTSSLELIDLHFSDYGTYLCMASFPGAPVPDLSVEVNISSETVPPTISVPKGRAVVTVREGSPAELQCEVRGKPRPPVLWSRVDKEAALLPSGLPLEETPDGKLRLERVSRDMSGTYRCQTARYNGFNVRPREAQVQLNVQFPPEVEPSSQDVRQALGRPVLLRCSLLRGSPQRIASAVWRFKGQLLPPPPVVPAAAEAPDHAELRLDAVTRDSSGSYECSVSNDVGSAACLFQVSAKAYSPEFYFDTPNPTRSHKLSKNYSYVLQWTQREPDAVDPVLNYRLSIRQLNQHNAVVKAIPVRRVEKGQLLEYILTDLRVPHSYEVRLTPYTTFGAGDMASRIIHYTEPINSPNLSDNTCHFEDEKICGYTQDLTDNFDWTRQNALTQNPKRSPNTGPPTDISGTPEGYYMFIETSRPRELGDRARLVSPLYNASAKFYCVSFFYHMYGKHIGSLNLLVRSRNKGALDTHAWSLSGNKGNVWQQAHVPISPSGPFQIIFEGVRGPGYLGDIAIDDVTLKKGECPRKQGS

binding result [1]: binds
binding result [2]: binds
binding result [3]: binds
Kd [4]: 3.4 nM
B1: extracellular domain of rat NLGN2 (residues V43-H612) with splice insert A (domain or fragment, UniProt Q62888-1 43-612, looked up)
chain: VVNTAYGRVRGVRRELNNEILGPVVQFLGVPYATPPLGARRFQPPEAPASWPGVRNATTLPPACPQNLHGALPAIMLPVWFTDNLEAAATYVQNQSEDCLYLNLYVPTEDGPLTKKRDEATLNPPDTDIRDSGKKPVMLFLHGGSYMEGTGNMFDGSVLAAYGNVIVATLNYRLGVLGFLSTGDQAAKGNYGLLDQIQALRWLSENIAHFGGDPERITIFGSGAGASCVNLLILSHHSEGLFQKAIAQSGTAISSWSVNYQPLKYTRLLAAKVGCDREDSTEAVECLRRKSSRELVDQDVQPARYHIAFGPVVDGDVVPDDPEILMQQGEFLNYDMLIGVNQGEGLKFVEDSAESEDGVSASAFDFTVSNFVDNLYGYPEGKDVLRETIKFMYTDWADRDNGEMRRKTLLALFTDHQWVAPAVATAKLHADYQSPVYFYTFYHHCQAEGRPEWADAAHGDELPYVFGVPMVGATDLFPCNFSKNDVMLSAVVMTYWTNFAKTGDPNQPVPQDTKFIHTKPNRFEEVVWSKFNSKEKQYLHIGLKPRVRDNYRANKVAFWLELVPHLHNLH
